Source: publication PMC8716364, “A Redox-Sensitive Cysteine Is Required for PIN1At Function” (Frontiers in Plant Science, 2021)

Tests used:
[1] = biological target: Cys69 (UniProt position 69, TRVSDCSSAKR); test: chemical modification; settings: 25 °C; sodium citrate or phosphate buffer (concentration not stated); reduced (DTT-treated and desalted), free enzyme, monomer
[2] = biological target: the molecule itself; test: SEC-MALS; 76 μM (300 μg) reduced PIN1At incubated 30 min with 100 μM to 2.5 mM H2O2, 30 mM Tris-HCl pH 8.0, 200 mM NaCl, Superdex200 10/300; disulfide-bridged dimer
[3] = biological target: the molecule itself; test: non-reducing SDS-PAGE after alkylation with mPEG-maleimide; 20 μM reduced PIN1At with 25- or 100-fold excess H2O2 (500 μM or 2 mM), 30 min, TE buffer; one sample then 10 mM DTT 30 min; free thiols alkylated with 2 kDa mPEG-maleimide, non-reducing 15% SDS-PAGE

Molecule: PIN1At (PAR1), peptidyl-prolyl cis-trans isomerase Pin1, single-domain parvulin (Arabidopsis thaliana)
- pKa [1]: 4.9±0.1

B1: Arabidopsis PIN1At, untagged recombinant protein (enzyme, Arabidopsis thaliana, UniProt Q9SL42 2-119, looked up)
chain: ASRDQVKASHILIKHQGSRRKASWKDPEGKIILTTTREAAVEQLKSIREDIVSGKANFEEVATRVSDCSSAKRGGDLGSFGRGQMQKPFEEATYALKVGDISDIVDTDSGVHIIKRTA
notes: Single cysteine, Cys69; the printed masses (12.3 kDa, 12,882.7 Da; theoretical 13,014.7 Da) fit the untagged protein; also called PAR1; PIN1At/PAR1; source: E. coli BL21 (DE3) with pSBET, pET12a, purified (ammonium sulfate, ACA44 gel filtration, DEAE-Sephacel)
- stoichiometry N [2]: 2

B2: Arabidopsis PIN1At, N-terminal His-tagged recombinant protein (enzyme, Arabidopsis thaliana, UniProt Q9SL42 1-119, looked up)
chain: MASRDQVKASHILIKHQGSRRKASWKDPEGKIILTTTREAAVEQLKSIREDIVSGKANFEEVATRVSDCSSAKRGGDLGSFGRGQMQKPFEEATYALKVGDISDIVDTDSGVHIIKRTA
notes: also called His-tagged PIN1At; not shown: His6, N-terminal, kept
- binding result [3]: binds
